{"source": "patent US8633026B2", "about": "“Cytokine induction of selectin ligands on cells” (priority 2006, dated 2014)", "molecules": {"B1": {"name": "G-CSF: recombinant human granulocyte colony stimulating factor (Amgen), cytokine (protein, UniProt P09919 31-207, looked up)", "Granulocyte …": "TPLGPASSLPQSFLLKCLEQVRKIQGDGAALQEKLVSECATYKLCHPEELVLLGHSLGIPWAPLSSCPSQALQLAGCLSQLHSGLFLYQGLLQALEGISPELGPTLDTLQLDVADFATTIWQQMEELGMAPALQPTQGAMPAFASAFQRRAGGVLVASHLQSFLEVSYRVLRHLAQP"}}, "key": {"CD15": {"system": "CD15", "test": "CD15 expression by flow cytometry after G-CSF treatment with or without DANA", "format": "cell-based, human", "conditions": "for expression of CD15: 10 ng/ml G-CSF, 72 hr", "procedure": "Bone marrow cells were treated with 10 ng/mL of G-CSF for 5 days in the presence or absence of 100 mM DANA and expression of CD15 was analyzed by flow cytometry.\n(§1) Aliquots of ˜2-5×10^5 cells were washed with PBS, 2% FBS and incubated with primary mAbs. Subsequently, the cells were washed and incubated with species and isotype matched FITC- or PE-labeled polyclonal antibodies. Following this incubation, the cells were washed and FITC or PE fluorescence of cells was determined using a Cytomics FC 500 MPL flow cytometer (Beckman Coulter Inc., Fullerton, Calif.).\n(§2) Freshly isolated BM cells were separated into early immature (Band 1), late immature (Band 2) and mature (Band 3) myeloid fractions."}, "L-selectin": {"system": "L-selectin", "test": "Flow cytometry of L-selectin on G-CSF-treated BM cells", "format": "cell-based, human", "conditions": "in vitro, 10 ng/ml G-CSF, 72 hr", "procedure": "as §1"}, "[1]": {"system": "ST3GalIV, FucT-IV and FucT-VII", "test": "RT-PCR of glycosyltransferases in G-CSF-treated Band 2 BM cells", "format": "cell-based", "conditions": "immature human BM cells (Band 2), 10 ng/ml G-CSF, 72 hr", "text": "ID NO:1) and antisense [NT] NO:2); FucT-VII, sense [NT] ID NO:3) and antisense [NT] ID NO:4); FucT-IV, sense […] NO:5) and antisense […] NO:6); GAPDH sense [NT] ID NO:8) and antisense [NT] ID NO:9)."}, "[2]": {"system": "E-selectin ligands on circulating leukocytes", "test": "Clinical collections of leukocytes mobilized by G-CSF administration (ML)", "format": "in vivo, human", "text": "Materials: G-CSF mobilized peripheral blood (MPB) was obtained from pheresis products of donors for clinical HSCT at Brigham and Women's Hospital/Dana Farber Cancer Institute (Boston, Mass.). G-CSF MPB leukocytes (ML) were isolated from buffy coat of dextran sedimentated whole blood, followed by hypotonic lysis to remove contaminating red cells. Mononuclear fraction of these cells (ML-M) was isolated by Ficoll-Hypaque (1.077 g/ml; Sigma Aldrich) density gradient centrifugation. Native (unmobilized) peripheral blood was obtained from consenting healthy volunteers, and NL (buffy coat) were isolated using dextran sedimentation as for ML. Peripheral blood mononuclear cells (PBMC) were isolated by Ficoll-Hypaque density gradient centrifugation. Polymorphonuclear leukocytes (PMN) were isolated by dextran sedimentation followed by collecting the cell pellet after Ficoll-Hypaque density gradient centrifugation. Contaminated red cells were removed by hypotonic lysis.\nA tissue culture dish containing confluent HUVEC monolayer or CHO cells was loaded into a parallel plate flow chamber (Glycotech; Gaithersburg, Md.). […] Primary tethering^49 was determined by quantifying the number of ML or NL that attached (i.e., interacted) from the free stream directly onto HUVEC monolayer or CHO cells during the first 2 minutes of flow. Secondary attachments (i.e., flowing leukocytes interacting with an already adherent leukocyte on HUVEC monolayer or CHO cells) or leukocytes that rolled into the field of observation from the upstream region were not counted. Average rolling velocity, a quantitative measure of selectin binding strength, was computed (using Scion Image) as the displacement by the centroid of the cell divided by the time interval of observation, 5 sec. […]\nAliquots of ˜2-5×10^5 cells were washed with PBS, 2% FBS and incubated with primary mAbs. […] Following this incubation, the cells were washed and FITC or PE fluorescence of cells was determined using a Cytomics FC 500 MPL flow cytometer (Beckman Coulter Inc., Fullerton, Calif.)."}, "endothelial E-selectin": {"system": "endothelial E-selectin", "test": "Parallel plate flow chamber adhesion of G-CSF-treated Band 2 cells on stimulated HUVEC", "format": "cell-based, human", "conditions": "72 hr G-CSF, 1.5 dyne/cm^2, IL-1β-stimulated HUVEC", "text": "FIGS. 12A-B illustrates G-CSF treatment enhances the capability of human BM cells to adhere to endothelial E-selectin under physiologic flow conditions. HUVEC were stimulated with IL-1β for 4-6 hrs. Subsequently, untreated or 72 hr. G-CSF-treated Band 2 cells were perfused over HUVEC at 1.5 dyne/cm^2. In certain instances, stimulated HUVEC were pretreated with a mAb to E-selectin prior to use in adhesion assays. […]\nA tissue culture dish containing confluent HUVEC monolayer or CHO cells was loaded into a parallel plate flow chamber (Glycotech; Gaithersburg, Md.). […] Primary tethering^49 was determined by quantifying the number of ML or NL that attached (i.e., interacted) from the free stream directly onto HUVEC monolayer or CHO cells during the first 2 minutes of flow. Secondary attachments (i.e., flowing leukocytes interacting with an already adherent leukocyte on HUVEC monolayer or CHO cells) or leukocytes that rolled into the field of observation from the upstream region were not counted. Average rolling velocity, a quantitative measure of selectin binding strength, was computed (using Scion Image) as the displacement by the centroid of the cell divided by the time interval of observation, 5 sec."}, "[3]": {"system": "Hcell and HECA-452-reactive ˜65 kDa glycoprotein on human BM cells", "test": "In vitro G-CSF treatment of human BM cells, HECA-452 and E-Ig Western blots", "format": "cell-based", "procedure": "Normal human bone marrow (BM) cells were isolated from human BM harvest material (Massachusetts General Hospital, Boston, Mass.). Red cells were separated using dextran sedimentation method. The leukocyte-rich supernatant was subjected to a two-step discontinuous Percoll (Amersham Pharmacia Biotech; Piscataway, N.J.) density gradient centrifugation (1.065 g/ml and 1.080 g/ml; 1000 g for 20 min at 4° C.). […] The cells with least density found at the upper band (“Band 1”) contained early immature cells (myeloblasts and promyelocytes), “Band 2” contained late immature cells (primarily myelocytes and metamyelocytes), and “Band 3” contained the most mature leukocytes (predominantly band and segmented neutrophils) as well as some contaminating red cells, which were subsequently removed by hypotonic lysis. The cells in different bands were collected, washed and used for further studies. In some instances, BM mononuclear cells (BM-MNC) were isolated by Ficoll-Hypaque density gradient centrifugation. CD34+/lineage—subpopulation was isolated from BM-MNC using a negative cell selection StemSep™ human progenitor enrichment cocktail (Stem Cell Technologies Inc.); CD34+ cells were then further isolated by positive selection using anti-CD34 immunomagnetic beads (Miltenyi Biotech.), routinely resulting in populations of >98% CD34+ cells.\nMembrane proteins of purified ML-M, ML-G, PMN, or PBMC were isolated as described previously^28,39. Membrane protein suspensions were aliquoted and stored at −20° C. For SDS-PAGE and Western blotting, membrane preparations were diluted in reducing sample buffer, boiled and then separated on 4-20% or 7.5% Criterion Tris-HCl SDS-PAGE gels (Bio-Rad Laboratories). Resolved membrane proteins were transferred to Sequi-blot polyvinylidene diflouride (PVDF) membrane (Bio-Rad Laboratories) and blocked with heat inactivated FBS. Blots were incubated with primary antibodies or E-Ig (each at 1 μg/ml). Appropriate isotype control immunoblots (each at 1 μg/ml) were performed in parallel to evaluate nonspecific binding to protein bands. […]"}, "sialidase": {"system": "sialidase", "test": "Sialidase expression/activity after G-CSF treatment of human myeloid cells", "format": "cell-based", "text": "as §2"}, "Fuct-IX": {"system": "Fuct-IX", "test": "FucT-IX expression after in vitro G-CSF treatment", "format": "cell-based, human", "conditions": "normal progenitors and mobilized peripheral blood, 10 ng/ml G-CSF, 72 hr", "text": "Lane 1 are normal cells isolated from bone marrow from healthy donor. Lane 2 are G-CSF treated normal progenitors isolated from bone marrow from healthy donor. Lane 3 are untreated cells isolated from G-CSF mobilized blood. Lane 4 are G-CSF treated cells isolated from G-CSF mobilized blood.\nCD15 plays a role in innate immunity in priming dendritic cells. Moreover, FTIX fucosylates internal lactosamine units yielding the VIM-2 epitope. While, the VIM-2 is not sLex, but it consists of a terminal sialic acid with an “internal fucosylation” that can function as an E-selectin ligand"}, "[4]": {"conditions": "multiple clinical ML collections, G-CSF administration"}}}
{"molecule": "CC(=O)N[C@H]1[C@H]([C@H](O)[C@H](O)CO)OC(C(=O)O)=C[C@@H]1O", "note": "[DANA, 2-deoxy-2,3-dehydro-N-acetyl-neuraminic acid, reference compound]", "values": [{"measurement": "G-CSF-induced increase in CD15 under sialidase inhibition", "setting": "CD15; bone marrow cells, 10 ng/mL G-CSF for 5 days, 100 mM DANA, flow cytometry", "value": "blunts G-CSF-induced increase in CD15"}, {"measurement": "G-CSF-induced increase of CD15 under sialidase inhibition", "setting": "CD15; late mature bone marrow and leukocytes, G-CSF-treated", "value": "could be prevented"}]}
{"molecule": "B1", "values": [{"measurement": "L-selectin expression on G-CSF treated cells relative to untreated cells", "setting": "L-selectin", "value": "down-regulation of L-selectin expression"}, {"measurement": "expression levels of ST3GalIV, FucT-IV and FucT-VII", "setting": "[1]", "value": "increases in expression levels"}, {"measurement": "surface L-selectin expression on circulating leukocytes", "setting": "[2]; following G-CSF administration, flow cytometry", "value": "marked decrease in surface L-selectin expression"}, {"measurement": "E-selectin ligand activity of circulating leukocytes", "setting": "[2]; [4]", "value": "uniformly increased E-selectin ligand activity"}, {"measurement": "expression of the E-selectin ligands HCELL and the HECA-452-reactive ˜65 kDa glycoprotein", "setting": "[2]; [4]", "value": "upregulated the expression"}, {"measurement": "E-selectin binding (primary tethering, rolling velocity on stimulated HUVEC)", "setting": "endothelial E-selectin", "value": "enhanced E-selectin binding"}, {"measurement": "expression of Hcell and the HECA-452-reactive ˜65 kDa glycoprotein", "setting": "[3]; 10 ng/ml G-CSF, 72 hr, 37° C., predominantly immature Band 1 and Band 2 human BM cells", "value": "up-regulation in expression"}, {"measurement": "HCELL induction on lymphocytes", "setting": "[3]; lymphocytes in BM or in blood", "value": "not induced"}, {"measurement": "inducing HCELL expression among mature myeloid BM cells", "setting": "[3]; mature myeloid BM cells", "value": "only a variable effect"}, {"measurement": "expression of CD15", "setting": "CD15; early immature bone marrow", "value": "did not has an effect"}, {"measurement": "expression of CD15", "setting": "CD15; late mature bone marrow and leukocytes", "value": "increased expression of CD15"}, {"measurement": "expression of sialidase", "setting": "sialidase; bone marrow and leukocytes, 10 ng/ml G-CSF, 72 hr", "value": "increase expression of sialidase"}, {"measurement": "sialidase activity", "setting": "sialidase; human myeloid bone marrow cells, 10 ng/mL G-CSF, 24 hours, 4-MU-NANA substrate", "value": "increases sialidase activity"}, {"measurement": "Fuct-IX expression", "setting": "Fuct-IX", "value": "increases Fuct-IX expression"}]}
